Assay results reported in patent US6846910B2, “Isolated proteins containing portions of FAPα and other proteins” (Ludwig Institute for Cancer Research, priority 1994, dated 2005).

Experiments:
[1] = target: fibroblast activation protein alpha (human) (UniProt Q12884); assay: MHA rosetting assay on SW872 liposarcoma cells
[2] = target: fibroblast activation protein alpha (human) (UniProt Q12884); assay: MHA rosetting assay on COS-1 cells transfected with pFAP.38
[3] = target: T1, 170 kD FAPα dimer (Homo sapiens, UniProt Q12884, A207P/T229K/T354R); assay: Gelatin zymography with added treatments; format: biochemical
T1 construct: expressed in transfected cells; host or cells: 293 cells stably transfected with pFAP.38 (293-FAP)
T1 sequence (Q12884 1-760 A207P/T229K/T354R): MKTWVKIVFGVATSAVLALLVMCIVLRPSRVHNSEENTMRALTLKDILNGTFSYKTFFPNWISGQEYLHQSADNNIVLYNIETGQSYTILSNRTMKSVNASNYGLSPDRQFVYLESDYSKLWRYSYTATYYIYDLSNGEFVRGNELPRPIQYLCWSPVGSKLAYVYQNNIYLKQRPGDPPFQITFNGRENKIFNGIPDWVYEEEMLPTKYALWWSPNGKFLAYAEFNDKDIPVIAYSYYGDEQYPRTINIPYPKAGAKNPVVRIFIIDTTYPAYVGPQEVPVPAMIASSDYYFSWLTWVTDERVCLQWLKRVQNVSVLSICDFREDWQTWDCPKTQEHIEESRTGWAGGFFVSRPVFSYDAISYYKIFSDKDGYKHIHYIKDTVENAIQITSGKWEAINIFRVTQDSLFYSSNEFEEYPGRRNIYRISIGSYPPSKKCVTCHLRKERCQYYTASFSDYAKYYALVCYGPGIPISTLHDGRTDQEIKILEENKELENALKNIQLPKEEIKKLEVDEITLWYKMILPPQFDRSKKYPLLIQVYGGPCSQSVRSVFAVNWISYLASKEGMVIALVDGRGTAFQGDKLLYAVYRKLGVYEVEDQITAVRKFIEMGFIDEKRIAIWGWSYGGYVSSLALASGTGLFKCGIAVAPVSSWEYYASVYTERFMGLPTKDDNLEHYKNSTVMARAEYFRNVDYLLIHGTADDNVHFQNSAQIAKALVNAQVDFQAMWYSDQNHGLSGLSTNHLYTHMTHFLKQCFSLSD
Procedure: Extracts of 293-FAP cells were prepared, using an extraction buffer (0.15M NaCl, 0.05M Tris-HCl, pH 7.4, 10 mM MgCl2, 1 percent Triton X-114), were cleared by centrifugation (4,000×g, 10 minutes at 40° C.), and phase partitioned at 37° C. for 10-20 minutes. This was followed by further centrifugation (4000×g, 20 minutes at 20-25° C.) Detergent phases were diluted with buffer (0.15M NaCl, 0.05M Tris-HCl pH 7.4, 5 mM CaCl2, 5 mM MgCl2, 0.75% Empigen BB), and separated on concanavalin A-Sepharose following Rettig et al., supra. Any concanavalin A bound fractions were eluted with 0.25M methyl-α-D-mannopyranoside in elution buffer 0.15M NaCl,0.05M Tris-HCl, pH 7.4, 5 mM CaCl2, 5 mM MgCl2, 0.1% Triton X-100), mixed with zymography sample buffer (0.25M Tris-HCl, pH 6.8, 8% SDS, 40% glycerol, 0.01% bromophenol blue), at a 3:1 ratio, and used for further analysis.
Aliquots of sample were loaded onto polyacrylamide gels containing 0.1% of either of gelatin or casein. Electrophoresis was then carried out in a Biorad Mini-Protein II system,.at 20 mA constant current for 1.5-2 hours, until the bromophenol blue dye fronts of samples had reached the lower end of the gel. The gel was removed and incubated for one hour at 20-25° C. in a 2.5% aqueous solution of Triton X-100 on a rotary shaker. The Triton X-100 solution was decanted, and replaced with enzyme buffer (0.05M Tris-HCl, pH 7.5, 0.2M NaCl, 5 mM CaCl2, 5 mM MgCl2, 0.02% Brij 35). The gel was then incubated at 37° C. or 41° C., followed by staining or destaining at room temperature. Gels were stained with 0.5% of Coomassie Brilliant Blue G-250 in an aqueous solution of 30% methanol and 10% acetic acid for 15, 30, and 60 minutes, respectively. Subsequently, gels were incubated for 15 minutes in an aqueous solution of 30% CH3OH and 5% glycerol, followed by drying between sheets of cellophane.

[4] = system: gelatin; assay: Gelatin zymography of 293-FAP cell extracts; format: biochemical; settings: unboiled samples, approximately 170 kilodalton species
Procedure: (§1) Extracts of 293-FAP cells were prepared, using an extraction buffer (0.15M NaCl, 0.05M Tris-HCl, pH 7.4, 10 mM MgCl2, 1 percent Triton X-114), were cleared by centrifugation (4,000×g, 10 minutes at […]), and phase partitioned at 37° C. for 10-20 minutes. This was followed by further centrifugation (4000×g, 20 minutes at 20-25° C.) Detergent phases were diluted with buffer (0.15M NaCl, 0.05M Tris-HCl pH 7.4, 5 mM CaCl2, 5 mM MgCl2, 0.75% Empigen BB), and separated on concanavalin A-Sepharose following Rettig et al., supra. Any concanavalin A bound fractions were eluted with 0.25M methyl-α-D-mannopyranoside in elution buffer 0.15M NaCl,0.05M Tris-HCl, pH 7.4, 5 mM CaCl2, 5 mM MgCl2, 0.1% Triton X-100), mixed with zymography sample buffer (0.25M Tris-HCl, pH 6.8, 8% SDS, 40% glycerol, 0.01% bromophenol blue), at a 3:1 ratio, and used for further analysis.
Aliquots of sample were loaded onto polyacrylamide gels containing 0.1% of either of gelatin or casein. Electrophoresis was then carried out in a Biorad Mini-Protein II system,.at 20 mA constant current for 1.5-2 hours, until the bromophenol blue dye fronts of samples had reached the lower end of the gel. […]
Gelatinase activity was evaluated in accordance with Kleiner et al., Anal. Biochem. 218: 325-329 (1994), incorporated by reference in its entirety. […]

[5] = system: casein; assay: Casein zymography of 293-FAP cell extracts; format: biochemical; settings: gel with 0.1% casein
Procedure: as §1
Aliquots of sample were loaded onto polyacrylamide gels containing 0.1% of either of gelatin or casein. Electrophoresis was then carried out in a Biorad Mini-Protein II system,.at 20 mA constant current for 1.5-2 hours, until the bromophenol blue dye fronts of samples had reached the lower end of the gel. The gel was removed and incubated for one hour at 20-25° C. in a 2.5% aqueous solution of Triton X-100 on a rotary shaker. […]

[6] = Membrane overlay assay for proteolytic activity; format: biochemical; settings: Ala-Pro-, Gly-Pro-, Lys-Pro-7-amino-4-trifluoromethyl coumarin
Procedure: Proteolytic activity for defined amino acid sequence motifs were tested, using a well known membrane overlay assay. See Smith et al, Histochem. J. 24(9): 637-647 (1992), incorporated by reference. Substrates were Ala-Pro-7-amino-4-trifluoromethyl coumarin, Gly-Pro-7-amino-4-trifluoromethyl coumarin, and Lys-Pro-7-amino-4-trifluromethyl coumarin.

monoclonal antibody F19
Cell surface antigen expression (% positive cells) [1]: > 95%
Cell surface antigen expression (% positive cells) [2]: 40%

O=C(O)CN(CCN(CC(=O)O)CC(=O)O)CC(=O)O [ethylenediamine N,N,N′,N′-tetraacetic acid]
effect on gelatin degrading enzymatic activity ([3]; 10 mM added to incubation buffer for gelatin zymography): None of these treatments abolished the enzymatic activity

NC(=O)CI [iodoacetamide]
effect on gelatin degrading enzymatic activity ([3]; 5 um added to extracts prior to SDS-PAGE): None of these treatments abolished the enzymatic activity

OCCS [2-mercaptoethanol]
effect on gelatin degrading enzymatic activity ([3]; 5% added to extracts prior to SDS-PAGE): None of these treatments abolished the enzymatic activity

B1: FAPα: recombinant fibroblast activation protein alpha from 293-FAP cells, approximately 170 kilodalton dimeric species by SDS-PAGE of unboiled samples (protein)
chain: MKTWVKIVFGVATSAVLALLVMCIVLRPSRVHNSEENTMRALTLKDILNGTFSYKTFFPNWISGQEYLHQSADNNIVLYNIETGQSYTILSNRTMKSVNASNYGLSPDRQFVYLESDYSKLWRYSYTATYYIYDLSNGEFVRGNELPRPIQYLCWSPVGSKLAYVYQNNIYLKQRPGDPPFQITFNGRENKIFNGIPDWVYEEEMLPTKYALWWSPNGKFLAYAEFNDKDIPVIAYSYYGDEQYPRTINIPYPKAGAKNPVVRIFIIDTTYPAYVGPQEVPVPAMIASSDYYFSWLTWVTDERVCLQWLKRVQNVSVLSICDFREDWQTWDCPKTQEHIEESRTGWAGGFFVSRPVFSYDAISYYKIFSDKDGYKHIHYIKDTVENAIQITSGKWEAINIFRVTQDSLFYSSNEFEEYPGRRNIYRISIGSYPPSKKCVTCHLRKERCQYYTASFSDYAKYYALVCYGPGIPISTLHDGRTDQEIKILEENKELENALKNIQLPKEEIKKLEVDEITLWYKMILPPQFDRSKKYPLLIQVYGGPCSQSVRSVFAVNWISYLASKEGMVIALVDGRGTAFQGDKLLYAVYRKLGVYEVEDQITAVRKFIEMGFIDEKRIAIWGWSYGGYVSSLALASGTGLFKCGIAVAPVSSWEYYASVYTERFMGLPTKDDNLEHYKNSTVMARAEYFRNVDYLLIHGTADDNVHFQNSAQIAKALVNAQVDFQAMWYSDQNHGLSGLSTNHLYTHMTHFLKQCFSLSD
gelatin degrading activity [4]: observed to have gelatin degrading activity
proteolytic activity with casein as substrate [5]: not observed
cleavage of dipeptide substrates [6]: able to cleave all of the Ala-Pro, Gly-Pro, and Lys-Pro dipeptides tested
